The source of these data is PMC10786891, “Massively parallel profiling of RNA-targeting CRISPR-Cas13d”.

The labels stand for the following.
T1: EsCas13d, nuclease-dead (Eubacterium siraeum, UniProt B0MS50, R295A;H300A;R849A;H854A)
T1 sequence: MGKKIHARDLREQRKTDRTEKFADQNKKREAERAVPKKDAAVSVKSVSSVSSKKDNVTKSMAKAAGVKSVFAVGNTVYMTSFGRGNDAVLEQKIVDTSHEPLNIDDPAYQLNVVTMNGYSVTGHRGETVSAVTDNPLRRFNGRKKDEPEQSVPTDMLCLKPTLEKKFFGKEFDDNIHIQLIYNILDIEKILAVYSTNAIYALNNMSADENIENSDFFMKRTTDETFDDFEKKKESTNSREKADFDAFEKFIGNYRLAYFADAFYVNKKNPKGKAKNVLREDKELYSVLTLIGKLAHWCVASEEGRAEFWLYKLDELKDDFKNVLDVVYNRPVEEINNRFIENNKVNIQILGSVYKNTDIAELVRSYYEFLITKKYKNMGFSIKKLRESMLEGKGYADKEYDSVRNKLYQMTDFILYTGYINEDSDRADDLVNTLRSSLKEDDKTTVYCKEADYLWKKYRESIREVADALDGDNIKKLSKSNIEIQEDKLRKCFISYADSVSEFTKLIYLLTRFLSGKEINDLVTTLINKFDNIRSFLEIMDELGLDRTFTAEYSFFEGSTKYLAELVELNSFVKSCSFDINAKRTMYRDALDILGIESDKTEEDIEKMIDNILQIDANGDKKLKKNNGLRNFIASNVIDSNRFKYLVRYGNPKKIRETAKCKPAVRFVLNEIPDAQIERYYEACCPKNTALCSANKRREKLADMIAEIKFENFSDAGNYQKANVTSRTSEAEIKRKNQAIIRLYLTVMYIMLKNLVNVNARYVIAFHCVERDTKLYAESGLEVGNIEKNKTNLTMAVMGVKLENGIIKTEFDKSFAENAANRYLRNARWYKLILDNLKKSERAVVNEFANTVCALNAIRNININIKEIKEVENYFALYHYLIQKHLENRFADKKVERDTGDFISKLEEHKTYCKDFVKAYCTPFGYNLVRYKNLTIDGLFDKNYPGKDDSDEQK

B1: target 2 MT 5'PFS AGU 3'PFS CUC (mixed)
RNA 1: CACCCGUGCAAAAUUGCAGGGGUCUAAAACCUUCUCCAAAUUGUUUCAUCCU
RNA 2: GGGAAUGGAUCCACAUCUACGAAUUCAGUAGGAUGAAACAAUUUGGAGAAGCUCAGAUCGGAAGAGCACACGU
B2: target 2 MT 5'PFS GGC 3'PFS UGU (mixed)
RNA 1: B1 RNA 1
RNA 2: B1 RNA 2 with A27G, U29C, C52U, U53G, C54U
B3: target 2 MT 5'PFS UUA 3'PFS UAU (mixed)
RNA 1: B1 RNA 1
RNA 2: B1 RNA 2 with A27U, G28U, U29A, C52U, U53A, C54U
B4: target 2 MT 5'PFS GUC 3'PFS UUA (mixed)
RNA 1: B1 RNA 1
RNA 2: B1 RNA 2 with A27G, G28U, U29C, C52U, C54A
B5: target 2 MT 5'PFS GUC 3'PFS UUC (mixed)
RNA 1: B1 RNA 1
RNA 2: B1 RNA 2 with A27G, G28U, U29C, C52U
B6: target 2 MT 5'PFS AUU 3'PFS UUA (mixed)
RNA 1: B1 RNA 1
RNA 2: B1 RNA 2 with G28U, C52U, C54A
B7: target 2 MT 5'PFS UUA 3'PFS UAC (mixed)
RNA 1: B1 RNA 1
RNA 2: B1 RNA 2 with A27U, G28U, U29A, C52U, U53A
B8: target 2 MT 5'PFS GCU 3'PFS UCC (mixed)
RNA 1: B1 RNA 1
RNA 2: B1 RNA 2 with A27G, G28C, C52U, U53C
B9: target 2 MT 5'PFS UUA 3'PFS UAG (mixed)
RNA 1: B1 RNA 1
RNA 2: B1 RNA 2 with A27U, G28U, U29A, C52U, U53A, C54G
B10: target 2 MT 5'PFS AGU 3'PFS CUU (mixed)
RNA 1: B1 RNA 1
RNA 2: B1 RNA 2 with C54U
B11: target 2 MT 5'PFS AAG 3'PFS AAC (mixed)
RNA 1: B1 RNA 1
RNA 2: B1 RNA 2 with G28A, U29G, C52A, U53A
B12: target 2 MT 5'PFS GUC 3'PFS UUU (mixed)
RNA 1: B1 RNA 1
RNA 2: B1 RNA 2 with A27G, G28U, U29C, C52U, C54U
B13: target 2 MT 5'PFS GCU 3'PFS UCG (mixed)
RNA 1: B1 RNA 1
RNA 2: B1 RNA 2 with A27G, G28C, C52U, U53C, C54G
B14: target 2 MT 5'PFS AUC 3'PFS CGA (mixed)
RNA 1: B1 RNA 1
RNA 2: B1 RNA 2 with G28U, U29C, U53G, C54A
B15: target 2 MT 5'PFS GCU 3'PFS UCU (mixed)
RNA 1: B1 RNA 1
RNA 2: B1 RNA 2 with A27G, G28C, C52U, U53C, C54U
B16: target 2 MT 5'PFS AUU 3'PFS UUC (mixed)
RNA 1: B1 RNA 1
RNA 2: B1 RNA 2 with G28U, C52U
B17: target 1 insG 3' of 2,insG 3' of 2 (mixed)
RNA 1: CACCCGUGCAAAAAUGCAGGGGUCUAAAACUGAGCGGAUAACCUCUCUAUGG
RNA 2: GGGAAUGGAUCCACAUCUACGAAUUCGUACCAUAGAGAGGUUAUCCGCUCGGACCGAGAUCGGAAGAGCACACGU

Changes are numbered by the printed parent chain.

The target in the series is T1, EsCas13d, nuclease-dead. Put plainly: crRNA (strand 1, pre-loaded); Mg2+; 40 mM Tris-HCl pH 7.5, 150 mM NaCl, 6 mM MgCl2, 1 mM DTT, 0.1% Tween-20, 0.2 mg/ml BSA; 25 C; 10 min per concentration, then washed. The following applies: tags: His6-TwinStrep-SUMO cleaved; N-terminal SNAP kept (SNAP-Surface 488); label: 3' end held by stalled T7 RNA polymerase.
Molecule B1 had a Kd of roughly 0.05 µM.
In turn, B2 came in with a Kd of 0.0278 ± 0.0035 µM.
The result for B3 reads 0.0159 ± 0.0024 µM.
Molecule B4 came in with a Kd of 0.031 ± 0.006 µM.
With B5 the figure was roughly 0.047 µM.
With B6 the figure was 0.0135 ± 0.0021 µM; with B7, 0.037 ± 0.007 µM.
The result for B8 reads 0.04 ± 0.008 µM; that for B9, 0.022 ± 0.005 µM; that for B10, 0.024 ± 0.008 µM.
As for B11, the dissociation constant (Kd) is 0.0031 ± 0.001 µM.
With B12, binding was characterised by a dissociation constant (Kd) of 0.058 ± 0.015 µM.
The result for B13 reads 0.018 ± 0.004 µM; that for B14, 0.061 ± 0.02 µM.
The result for B15 reads 0.034 ± 0.011 µM; that for B16, 0.023 ± 0.005 µM.
With B17 the figure was 0.0075 ± 0.0005 µM.

In general, Kd refers to the equilibrium constant for the complex coming apart. A low value points to a tighter complex.
